Twelve sequences from the DeepSol protein solubility set can be followed below.

The data set can be described thus: soluble on expression in E. coli; label from the status in PepcDB or PDB records.
As to “MKLSLVLTARDDGARRLLADTQRQLDRTAKSRAQLERQSHTYALTGIRSEKQIQREIMLTQAAFNRLARSGKASQNDLARAAVATRNRIRELNAELKQGTGFADKMGKIGRFGAAAVAGGAAAYTVLKPAMDNRKQLDENINRVSRQAFIEDNSKSAAWIATEGAQQIKDLALELVEKNGGTHDKALDLISGMMTTGLNFAQTKNEAQAAYAFALASEGSGEDTAKLIKTLKDGGMSGKDLQLGLEHVLQSGLDGTFEVRDMVRELPSLLSAAQQAGMNGVGGLDYLLSLLQSAANKSGSPAEAATNVQNLLSKTLSPDTIGRLKKMANPNDPKKGVDWIGSVVQGKQNGENAVQVLSRLADAMLVKDKQYQDYKKRAAAGDKTAAEQANMLKGALLAQLLPDLQAKQGLLAATDMTQIREYMASLAGVTLDNGKIAKNNEARMLSAAAQQEQQESLAMLRESLTGTLVDMETSFKKLAAEYPNATLALQALTTAATAASAAMLLTAGGGKGAGFLKDVGSKALGWGKASAGGVAAGATAAGGKLLSWGKSAGSGLMNNPALVKRAGLLGMLLYSESLGDGTLPKGLRGTKTTPEMINRLKNNGIRFEPAPKREQARGGVPQYLAAPSAQPTDKMLSPLFSTQTAAYQAAIQQQTAAYQAALAQDTAAVTTGLAQVQSAMASASQTINTNVSLNIDGRVIANEVSRYQVAMFGRGAGQ”, the “soluble on expression in E. coli” value was “not soluble”. As to “MLAFIRFLFAGLLLVISHAFAATVQDEHGTFTLEKTPQRIVVLELSFADALAAVDVIPIGIADDNDAKRILPEVRAHLKPWQSVGTRAQPSLEAIAALKPDLIIADSSRHAGVYIALQQIAPVLLLKSRNETYAENLQSAAIIGEMVGKKREMQARLEQHKERMAQWASQLPKGTRVAFGTSREQQFNLHTQETWTGSVLASLGLNVPAAMAGASMPSIGLEQLLAVNPAWLLVAHYREESIVKRWQQDPLWQMLTAAQKQQVASVDSNTWARMRGIFAAERIAADTVKIFHHQPLTVVK”, the “soluble on expression in E. coli” value is on record as “soluble”. As to “DIQMTQSPSSLSASVGDRVTITCRASQDIPRSISGYVAWYQQKPGKAPKLLIYWGSYLYSGVPSRFSGSGSGTDFTLTISSLQPEDFATYYCQQHYTTPPTFGQGTKVEIKRTVAAPSVFIFPPSDEQLKSGTASVVCLLNNFYPREAKVQWKVDNALQSGNSQESVTEQDSKDSTYSLSSTLTLSKADYEKHKVYACEVTHQGLSSPVTKSFNRGEC”, the “soluble on expression in E. coli” value is given as “soluble”. In the case of “MSLAGFVVTDVTVATCSILNPFSSCKSSAPWWTQVEKDLYLRTGWTSAAYIRFQRKKEEELLPADKVVIDLKISRLAPEVQDDPKEDKADWEQRPGGIWLKRTAKRHASDSHSAITSVDVLFGADAVDPRPGWEVKDTPILLDSRTESLEARITVRRGDPLKIKKPVPRINENGRFKIMQLADLHLSTGLGHCRDPVPPELIPGQGCEADPRTLDFIERLLDEEQPDLVILSGDQVNGETSRDAQSPLFKSVKLLVDRKIPYAAIFGNHDDEGNLDRHQSMAILEDLPYSLSSAGPEDIDGVGNYIVEVLGRGNTDHSALTLYLLDSHSYSPDERQFRGYDWIKPNQIRWFKTTAQGLKAKHQQYAYMHMNMAFIHIPLPEFAQRGNYFRGNWSEPSTAPGFNSGFKDALEEEGILFVGCGHDHANDYCALSKNEAQKPSLWMCYGGGAGFGGYGGYGGFIRRVRFFDFDMNPGRVVTYKRLEYGNTDARIDEMMIVDGGMVKGPDEGHHHHHH”, the “soluble on expression in E. coli” value is given as “soluble”. For the sequence “MGSDKIHHHHHHMSLCYEEALFLEKDLERLKALRTIAPMNEILDHAEVAALAEGIGKAVLGETITQVIDDYRKQLLGDKSFAASMSHLSRQEITLHLVQELKDKLDAQDSTCLKKLINATGIVLHTNLGRAPLPDSAIGLIQEVNEGYSNLEFDLETGNRGSRHTHIEPLITRLTGAESAMVVNNNAAAVFISLNTLAKQRDVIISRGQQVEIGGSFRIPDIIASSGCTMIEVGTTNKTKPDDYAKAITENTAVLLKVHTSNYKISGFTEEVPLQDLVELGKIKNVLVMEDLGSGCLYDLSKIGLPHEPTVQEVIAGGADLVTFSGDKLLGGPQIGVIAGKKALIDKIKKNSFARIVRCDKSSIAALTAVLKLYMNPEKALAQIPALNMLALKEADLLLRAEELERQLQAALGERCQVEIVDVHDEAGGGSLPDVLLKGKAVSLTIDGLSANRLQELLRQEPIPIICRIVKDKVLLNVRTMSEKEFPLITQTMQNIVG”, the “soluble on expression in E. coli” value is reported as “not soluble”.

On to “MMPLSTPDFASIRDTLLRDLQNLRADADIAPDSDYFVRASSVASAVEGLYQHQSWIARQIFPDTADSEYLEQHARLRGIVRKPAAAASGTLRISGNAGAVVSGSLQLRIGEQLYATPAANPDGSPYAARLDANGQAELPIFASQAGAAGNQPESLPVELMQAPSGVSAKALLLSMRNGVDVEDDAALLDRLLELIRRPPAGGNRHDYRRWAMEVKGVSAAYVYPLRRGLGTVDVVITANGDLPSQEILNNVQAHIEDLRPVTAKSCLVLAPTPRPVDIDVALNLGGANLDAFTPLLQQTLQAYFAGLAPGERLVKSRIEALISDLPGVQDRQLNSPAGNVDPVSDPTKVEWLRLGKLTVGLLKLEHHHHHH”, for which the “soluble on expression in E. coli” value was “soluble”.

For “MIELVIVSRLLEYPDAALWQHQQEMFEAIAASKNLPKEDAHALGIFLRDLTTMDPLDAQAQYSELFDRGRATSLLLFEHVHGESRDRGQAMVDLLAQYEQHGLQLNSRELPDHLPLYLEYLAQLPQSEAVEGLKDIAPILALLSARLQQRESRYAVLFDLLLKLANTAIDSDKVAEKIADEARDDTPQALDAVWEEEQVKFFADKGCGDSAITAHQRRFAGAVAPQYLNITTGGQH”, the “soluble on expression in E. coli” value is given as “not soluble”. As for “MPPKGGGAGSKKQQGGKKCKDDEADFDAQLAKALQEVQVSKDKQGGDANKKAQKGKQRTSKQESNGEANDNNDASDPKVVSTADHPDNPYPQVAEGMKRQTWPEPTIPVSQQFARGNFPVGIICEHPGEVNAYRYSSEEKRAMEHATEEQVQDLRCAAEVHRQVRRYAQSFIKPGISLLSMTDRIEKKLEELIEKDGLNRGQAFPTGCSLNHVAAHYTPNTGDKCVLMYDDVMKVDFGTQINGRIIDCAWTVAFKDEYEPLLTAVKEATYEGVKQAGIDVRLCDVGAAIQEVMESYEVELNGKVYPVKSIRNLSGHTIAPYVIHGGKSVPIVRGGEATRMEEGELFAIETFGSTGRGFVQEDMECSHYMMVPGGEKTQVRSDKAQQLLRHIHKTYNTLAFARKWLDRDGHDRHLLNLNQLVEAGAVNKYPPLCDIRGCYTAQLEHTLILKPTAKEILSKGDDY”, the “soluble on expression in E. coli” value is on record as “soluble”. Regarding “MSLRHFFGAFLLGMATLTVMPTEQVLAGTLTGQPPIVIGHRGASGYRPEHTLAAYELAIQMGADYIEPDLVATKDGVLVARHENALAILNADGTLNLTDTSTDVFERLQFADRKTTKVIDGRSITGWFTEDFTLAELKTLRAIERIPGIRPQNTQYDRQFEIPTLQEVIDLAKAQSAALGRTIGIYPETKHPTYFDSIGLSMEEILVSVLNANGYVDESAPVYIQSFEVSNLKDLNRLTNVSLVQLISPSGRPYDFVVNGDSRLYRDLITPLGLAEIATYANGIGANKNLIIPRDGRGNLLSPTTLVDDAHAAGLIVHAWTFRNEDVFLPTNLQGNPQEEYKRFYQTGIDGLFSDNPDTAFAVRSTLVPEPGTIFGLGFVPLLGWLFRRRKEGHHHHHH”, the “soluble on expression in E. coli” value is given as “not soluble”. Under “GAMDPDLEATLRAIVHSATSLVDARYGAMEVHDRQHRVLHFVYEGIDEETVRRIGHLPKGLGVIGLLIEDPKPLRLDDVSAHPASIGFPPYHPPMRTFLGVPVRVRDESFGTLYLTDKTNGQPFSDDDEVLVQALAAAAGIAVANARLYQQAK” stands “soluble”.

For the sequence “NDAIPTIFIHGYRGTDRSLHGMIRRFDQKYNWGTESLTVNVSPDGSISTTGTYSKNEKNPLINIVFEDNRATLPQQSMWTKKIMSYLQKNYDIKKFNAIGHSMGGGAWVSYLASYEKNKSYPQVNKIVFLAVPFYPEEYVNGDQQVDIKNANNVHAKFAQKMAKVLPDNTEIMIIGGDLEDGSNSDGEVKLNSVLYGQKLFAHQKVITHVIKGPKATHSSMHESTVVDKYVGQFLWG”, the “soluble on expression in E. coli” value is given as “not soluble”.

For “MNKRRVKPEHVRREEIVNAAYEVIFEVGLSNTTMAQIAKKAQLSVGIVSHYFGDKQGLINACMLEMLNVLRRKTAQYKAEVQDSHPESMIKAIIDSNFDISQVNQRAMRIWLDFWSASMHMPELSRLQRINDQRLYSNLKFHFLELMPKDQASIAARGLAALIDGLWLRGSLSQDTTFDSTLARSIAYDYVDTQLKLVKQIRQERQNE”, the “soluble on expression in E. coli” value is “not soluble”.
